# B1: GAGC probe (dsDNA)
# DNA 1: CCGGGTCGCGAGCGGGCGGTACCG
# DNA 2: TCGACGGTACCGCCCGCTCGCGAC
# B2: GAGT probe (dsDNA)
# DNA 1: CCGGGTCGGGAGTGGGCGGTACCG
# DNA 2: TCGACGGTACCGCCCACTCCCGAC
# B3: GACT probe (dsDNA)
# DNA 1: CCGGGTCGGGACTGGGCGGTACCG
# DNA 2: TCGACGGTACCGCCCAGTCCCGAC
# B4: target 1 (dsDNA)
# DNA 1: GAGAGGGAGC
# DNA 2: GCTCCCTCTC
# B5: target 2 (dsDNA)
# DNA 1: TGGGGGGACA
# DNA 2: TGTCCCCCCA
# B6: target 3 (dsDNA)
# DNA 1: GCACAATGG
# DNA 2: CCATTGTGC
# B7: target 4 (dsDNA)
# DNA 1: GCGGCGGGGC
# DNA 2: GCCCCGCCGC
# B8: target 6 (dsDNA)
# DNA 1: AGGGCGGGGC
# DNA 2: GCCCCGCCCT
# B9: target 7 (dsDNA)
# DNA 1: GGGAAACGGG
# DNA 2: CCCGTTTCCC
# B10: target 8 (dsDNA)
# DNA 1: GTAGGAGAGT
# DNA 2: ACTCTCCTAC
# B11: target 10 (dsDNA)
# DNA 1: GGAGGGTGG
# DNA 2: CCACCCTCC
# B12: target 11 (dsDNA)
# DNA 1: TGGGGGTGA
# DNA 2: TCACCCCCA
# B13: target 12 (dsDNA)
# DNA 1: GAGCAAGTAG
# DNA 2: CTACTTGCTC
# B14: target 13 (dsDNA)
# DNA 1: GAGGTGGGAG
# DNA 2: CTCCCACCTC
# B15: target 32 (dsDNA)
# DNA 1: GGGGAGAAA
# DNA 2: TTTCTCCCC
# B16: target 33 (dsDNA)
# DNA 1: GTGGGGAAAA
# DNA 2: TTTTCCCCAC
# B17: target 34 (dsDNA)
# DNA 1: GAGGACGTG
# DNA 2: CACGTCCTC
# Tests used:
# [1] = molecular target: T1, Zif268 zinc finger protein (three fingers) (UniProt P08046 SEQ:1-89); assay: EMSA; Zn2+, Mg2+, pH 7.7, RT; no yeast growth; 1.6-fold repression (Table 8)
# [2] = molecular target: T1, Zif268 zinc finger protein (three …); assay: EMSA; Zn2+, Mg2+, pH 7.7, RT; yeast growth ++; 5.9-fold repression (Table 8)
# [3] = molecular target: T1, Zif268 zinc finger protein (three …); assay: EMSA; Zn2+, Mg2+, pH 7.7, RT; no yeast growth; 1.2-fold repression (Table 8)
# ZFP 1 RSNR-RDHT-RSNR = ZFP 1 RSNR-RDHT-RSNR (synthetic); assay: cell_activity; HEK293 luciferase repression of GAL4-VP16 activated reporter; details: tags: HA tag and NLS (P3 vector)
# Method: (§1) The in vivo activity assay for a particular three-finger protein was carried out as follows. HEK 293 cells were transfected with four plasmids: 14 ng of a plasmid expressing the particular three-finger protein; 14 ng of the reporter plasmid described above; 70 ng of a plasmid that expresses GAL4-VP 16; and 1.4 ng of a plasmid that expresses Renillar luciferase. The GAL4-VP 16 activates transcription of the minimal synthetic promoter in the reporter so that the repression effected by a particular three-finger protein could be clearly detected and compared to other three-finger proteins. The plasmid expressing Renillar luciferase provides a control of transfection efficiency.
# Lipofectamine (Gibco-BRL) was used for the transfection procedures. Cells were transfected at 30-50% confluency in wells of a 96 well plate. The cells were incubated for two days prior to harvesting for the luciferase assay. Then luciferase activities were measured using the Dual-Luciferase™ Reporter Assay System (Promega). The observed firefly luciferase activity was normalized using the observed level of Renilla luciferase. The extent of repression or “fold-repression” was calculated by dividing a value for normalized reporter expression in the absence of a zinc finger protein by a value for normalized reporter expression in the presence of the zinc finger protein. […]
# ZFP 2 CSNR1-RSHR-RDHT = ZFP 2 CSNR1-RSHR-RDHT (synthetic); assay: cell_activity; HEK293 luciferase repression; details: tags: HA tag and NLS (P3 vector)
# Method: as §1
# (§2) Lipofectamine (Gibco-BRL) was used for the transfection procedures. Cells were transfected at 30-50% confluency in wells of a 96 well plate. The cells were incubated for two days prior to harvesting for the luciferase assay. Then luciferase activities were measured using the Dual-Luciferase™ Reporter Assay System (Promega). The observed firefly luciferase activity was normalized using the observed level of Renilla luciferase. The extent of repression or “fold-repression” was calculated by dividing a value for normalized reporter expression in the absence of a zinc finger protein by a value for normalized reporter expression in the presence of the zinc finger protein.
# (§3) A total of 153 three-finger chimeric proteins were constructed from both the “zinc finger protein-first” and the “target site-first” approaches. These proteins were tested using the transient cotransfection assay described in Example 68.
# ZFP 3 RDHT-QSNV2-QSSR1 = ZFP 3 RDHT-QSNV2-QSSR1 (synthetic); assay: cell_activity; HEK293 luciferase repression; details: tags: HA tag and NLS (P3 vector)
# Method: as §1, §2, §3
# ZFP 4 RSHR-RDER1-RDER1 = ZFP 4 RSHR-RDER1-RDER1 (synthetic); assay: cell_activity; HEK293 luciferase repression; details: tags: HA tag and NLS (P3 vector)
# Method: as §1, §2, §3
# ZFP 6 RSHR-RDER1-RDHT = ZFP 6 RSHR-RDER1-RDHT (synthetic); assay: cell_activity; HEK293 luciferase repression; details: tags: HA tag and NLS (P3 vector)
# Method: as §1, §2, §3
# ZFP 7 RDHT-QSNV2-RSHR = ZFP 7 RDHT-QSNV2-RSHR (synthetic); assay: cell_activity; HEK293 luciferase repression; details: tags: HA tag and NLS (P3 vector)
# Method: as §1, §2, §3
# ZFP 8 RSNR-QSHR2-QSSR1 = ZFP 8 RSNR-QSHR2-QSSR1 (synthetic); assay: cell_activity; HEK293 luciferase repression; details: tags: HA tag and NLS (P3 vector)
# Method: as §1, §2, §3
# ZFP 10 RDHT-RSHR-QSHR2 = ZFP 10 RDHT-RSHR-QSHR2 (synthetic); assay: cell_activity; HEK293 luciferase repression; details: tags: HA tag and NLS (P3 vector)
# Method: as §1, §2, §3
# ZFP 11 QSHT-RSHR-RDHT = ZFP 11 QSHT-RSHR-RDHT (synthetic); assay: cell_activity; HEK293 luciferase repression; details: tags: HA tag and NLS (P3 vector)
# Method: as §1, §2, §3
# ZFP 12 QSSR1-QSNV2-RSNR = ZFP 12 QSSR1-QSNV2-RSNR (synthetic); assay: cell_activity; HEK293 luciferase repression; details: tags: HA tag and NLS (P3 vector)
# Method: as §1, §2, §3
# ZFP 13 QSHR2-RDER1-RSNR = ZFP 13 QSHR2-RDER1-RSNR (synthetic); assay: cell_activity; HEK293 luciferase repression; details: tags: HA tag and NLS (P3 vector)
# Method: as §1, §2, §3
# ZFP 32 QSNV2-RSNR-RDHT = ZFP 32 QSNV2-RSNR-RDHT (Homo sapiens); assay: cell_activity; HEK 293 luciferase; details: tags: HA, NLS
# Method: as §1, §2, §3
# ZFP 33 QSNV2-RSHR-RDER1 = ZFP 33 QSNV2-RSHR-RDER1 (Homo sapiens); assay: cell_activity; HEK 293 luciferase; details: tags: HA, NLS
# Method: as §1, §2, §3
# ZFP 34 VSSR-HSNK-RSNR = ZFP 34 VSSR-HSNK-RSNR (Homo sapiens); assay: cell_activity; HEK 293 luciferase; details: tags: HA, NLS
# Method: as §1, §2, §3
# Chain of ZFP 1 RSNR-RDHT-RSNR (synthetic) (chain, as listed by the source): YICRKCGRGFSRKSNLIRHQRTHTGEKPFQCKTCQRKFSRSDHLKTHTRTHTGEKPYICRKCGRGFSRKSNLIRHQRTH
# Chain of ZFP 34 VSSR-HSNK-RSNR (Homo sapiens) (chain, as listed by the source): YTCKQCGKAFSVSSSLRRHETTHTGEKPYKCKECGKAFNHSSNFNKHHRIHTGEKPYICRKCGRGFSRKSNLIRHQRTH
# Chain of ZFP 12 QSSR1-QSNV2-RSNR (synthetic) (chain, as listed by the source): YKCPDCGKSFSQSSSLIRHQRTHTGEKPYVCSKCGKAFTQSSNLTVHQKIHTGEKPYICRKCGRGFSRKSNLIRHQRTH
# Chain of ZFP 6 RSHR-RDER1-RDHT (synthetic) (chain, as listed by the source): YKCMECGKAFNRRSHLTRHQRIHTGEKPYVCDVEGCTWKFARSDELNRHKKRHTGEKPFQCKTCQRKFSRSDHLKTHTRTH
# Chain of ZFP 3 RDHT-QSNV2-QSSR1 (synthetic) (chain, as listed by the source): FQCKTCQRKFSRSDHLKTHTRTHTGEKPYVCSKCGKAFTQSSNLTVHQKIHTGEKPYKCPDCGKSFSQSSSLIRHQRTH
# Chain of ZFP 32 QSNV2-RSNR-RDHT (Homo sapiens) (chain, as listed by the source): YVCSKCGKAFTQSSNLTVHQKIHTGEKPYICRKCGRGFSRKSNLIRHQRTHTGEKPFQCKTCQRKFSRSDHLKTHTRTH
# Chain of ZFP 33 QSNV2-RSHR-RDER1 (Homo sapiens) (chain, as listed by the source): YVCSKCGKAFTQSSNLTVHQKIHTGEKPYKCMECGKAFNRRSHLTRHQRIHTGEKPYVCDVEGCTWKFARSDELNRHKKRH
# Chain of ZFP 13 QSHR2-RDER1-RSNR (synthetic) (chain, as listed by the source): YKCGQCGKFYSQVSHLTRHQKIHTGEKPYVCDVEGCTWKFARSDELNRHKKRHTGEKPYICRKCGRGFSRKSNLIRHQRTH
# Chain of ZFP 8 RSNR-QSHR2-QSSR1 (synthetic) (chain, as listed by the source): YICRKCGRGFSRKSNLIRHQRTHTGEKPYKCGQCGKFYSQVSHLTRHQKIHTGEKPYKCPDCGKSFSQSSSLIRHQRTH
# Chain of ZFP 7 RDHT-QSNV2-RSHR (synthetic) (chain, as listed by the source): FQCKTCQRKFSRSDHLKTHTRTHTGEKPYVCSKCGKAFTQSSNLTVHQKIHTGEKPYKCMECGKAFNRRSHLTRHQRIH
# Chain of ZFP 2 CSNR1-RSHR-RDHT (synthetic) (chain, as listed by the source): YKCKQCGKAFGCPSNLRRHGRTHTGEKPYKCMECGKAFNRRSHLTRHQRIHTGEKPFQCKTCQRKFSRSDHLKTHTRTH
# Chain of ZFP 11 QSHT-RSHR-RDHT (synthetic) (chain, as listed by the source): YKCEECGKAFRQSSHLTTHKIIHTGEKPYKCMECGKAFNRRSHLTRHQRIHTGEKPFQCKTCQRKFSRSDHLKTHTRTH
# Chain of ZFP 4 RSHR-RDER1-RDER1 (synthetic) (chain, as listed by the source): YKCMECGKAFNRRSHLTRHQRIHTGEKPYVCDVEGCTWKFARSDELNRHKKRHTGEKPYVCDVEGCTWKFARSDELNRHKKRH
# Chain of ZFP 10 RDHT-RSHR-QSHR2 (synthetic) (chain, as listed by the source): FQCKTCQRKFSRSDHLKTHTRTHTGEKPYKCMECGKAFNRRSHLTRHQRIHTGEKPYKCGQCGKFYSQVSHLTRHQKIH
binder,measurement,setting,value
B1,Kd,[1],2.3 nM
B2,Kd,[2],0.17 nM
B3,Kd,[3],4.9 nM
B4,activity,ZFP 1 RSNR-RDHT-RSNR,8.1 fold repression
B5,activity,ZFP 2 CSNR1-RSHR-RDHT,4.5 fold repression
B6,activity,ZFP 3 RDHT-QSNV2-QSSR1,4 fold repression
B7,activity,ZFP 4 RSHR-RDER1-RDER1,3.8 fold repression
B8,activity,ZFP 6 RSHR-RDER1-RDHT,3.6 fold repression
B9,activity,ZFP 7 RDHT-QSNV2-RSHR,3.6 fold repression
B10,activity,ZFP 8 RSNR-QSHR2-QSSR1,3.3 fold repression
B11,activity,ZFP 10 RDHT-RSHR-QSHR2,3.1 fold repression
B12,activity,ZFP 11 QSHT-RSHR-RDHT,3 fold repression
B13,activity,ZFP 12 QSSR1-QSNV2-RSNR,2.9 fold repression
B14,activity,ZFP 13 QSHR2-RDER1-RSNR,2.8 fold repression
B15,activity,ZFP 32 QSNV2-RSNR-RDHT,1.9 fold repression
B16,activity,ZFP 33 QSNV2-RSHR-RDER1,1.9 fold repression
B17,activity,ZFP 34 VSSR-HSNK-RSNR,1.9 fold repression
